Reference: US20120100074A1 (Teva, published 2012)
Each block holds one binder with its values, some of them ahead of it.

What was measured:
[1] = target: T1, LIGHT (TNFSF14), recombinant soluble protein (human, UniProt O43557 83-240, limits assumed); experiment: competition ELISA: inhibition of LIGHT-biotin binding to HVEM-Fc captured by Protein A
T1 construct: The immunogen was the extracellular domain fragment (Leu Ile Glu to Phe Met Val of AF036581); also called TL5; LIGHT/TL5

[2] = target: T1, LIGHT (TNFSF14), recombinant soluble …; experiment: competition ELISA: inhibition of LIGHT-biotin binding to DcR3-Fc captured by Protein A
[3] = target: T1, LIGHT (TNFSF14), recombinant soluble …; experiment: BiaCore (SPR)
[4] = target: T1, LIGHT (TNFSF14), recombinant soluble …; experiment: direct binding ELISA on LIGHT
[5] = target: T2, LIGHT expressed on the cell surface (LIGHT transfected cells; activated T-cells) (UniProt O43557 1-240, limits assumed); experiment: flow cytometry on LIGHT transfected cells against vector control cells
T2 construct: whole, on cells
T2 sequence (O43557 whole entry): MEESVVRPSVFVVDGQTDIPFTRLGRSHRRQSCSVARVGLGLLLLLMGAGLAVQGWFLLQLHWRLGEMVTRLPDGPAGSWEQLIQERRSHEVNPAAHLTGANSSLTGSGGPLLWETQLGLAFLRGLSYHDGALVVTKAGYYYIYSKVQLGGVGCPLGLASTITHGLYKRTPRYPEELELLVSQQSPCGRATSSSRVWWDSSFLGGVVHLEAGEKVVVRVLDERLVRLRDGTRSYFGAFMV

[6] = target: T1, LIGHT (TNFSF14), recombinant soluble …; experiment: competition ELISA: inhibition of LIGHT-biotin binding to LTbR-Fc captured by Protein A
[7] = target: T2, LIGHT expressed on the cell surface …; experiment: flow cytometry on PMA/ionomycin activated Th1, Th17 and Th2 cells, biotin labeled antibody, streptavidin-PE
Experimental: FIG. 10B illustrates binding of humanized 5E10 antibody to Th1, Th17 and Th2 activated T-cells compared to controls. Polarized T-cells were activated with PMA/Ionomycin for 24 hr. Biotin labeled LIGHT antibody or control antibody was incubated with cells for 40 minutes at room temperature. After washing twice with PBS, the antibody binding to LIGHT expressed on activated T-cells was determined by flow cytometry using strepavidin conjugated to PE. Dotted lines on figure indicates humanized LIGHT antibody binding. Solid fill indicates control antibody binding.
This example describes an assay protocol to determine LIGHT antibody binding to LIGHT expressed on surface of activated T-cells by Flow cytometry. Polarized Th1, Th2 and Th17 cells were activated with 50 ng/mL PMA and 0.5 μg/mL lonomycin overnight at 37° C. One million activated T-cells were transferred to 5 mL FACS tubes and centrifuged at 1200 rpm for 5 minutes. The cellet pellet was resuspended in FACS staining buffer and incubated with anti-LIGHT or control antibodies at room temperature for 40 minutes. After washing twice with 2 mL PBS, the cells were incubated with PE-conjugated secondary reagents for 1 hour. The cells were washed 3 times with 2 mL PBS and resuspended in 0.5 mL PBS and analyzed by flow cytometry.

T1 sequence (O43557 83-240 limits assumed): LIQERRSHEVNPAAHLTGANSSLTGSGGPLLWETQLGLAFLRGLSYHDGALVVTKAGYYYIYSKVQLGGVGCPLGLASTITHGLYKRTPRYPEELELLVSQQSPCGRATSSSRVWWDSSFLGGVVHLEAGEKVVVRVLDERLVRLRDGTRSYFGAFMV

IC50 [1]: 0.08 nM
IC50 [2]: 0.14 nM
Kd [3]: 0.045 nM
EC50 [4]: 0.16 nM
MFC ratio (mean fluorescence on LIGHT transfected cells to vector control cells) [5]: 13.1 ratio
IC50 [6]: 0.0012 nM
B1: murine anti-LIGHT monoclonal antibody 10D11 (antibody, V domains shown)
VH: EIQLQQSGPDLVKPGASVKVSCKASGYSFTDYYIYWVRQSHGKSLEWIGYIDPYNGGTKYNQKFKDTASLTVDKSSSTAFMHLNSLTSEDSAVYYCARTSGSSWFPYWGQGTLVTVSA
VL: DIVLTQSPATLSVTPGDSVSLSCRASQSISNNLHWYQQKSHESPRLLIKYTYQSISGIPSRFSGSGSGTDFTLTINSVETEDFGMYFCQQSNRWPLTFGAGTKLELKR
notes: Mouse hybridoma monoclonal antibody; also called m10D11; mD10D11

binding result [7]: binds
B2: humanized 5E10 antibody (antibody, V domains shown)
VH: QVQLVQSGAEVKKPGASVKVSCKASGYTFTSYYIHWVRQAPGQRLEWMGWIFPGSDITKYNEKFKGRVTITRDTSASTAYMELSSLRSEDTAVYYCAREDYGISTYSAMDFWGQGTLVTVSS
VL: DIQLTQSPSFLSASVGDRVTITCKASQDVGTAVAWYQQKPGKAPKLLIYWASTRHTGVPSRFSGSGSGTEFTLTISSLQPEDFATYYCQQYSSYPLTFGQGTKVEIKR
notes: also called h5E10
